According to patent US20150099861A1:

Molecular target: CMV peptide 495-503 (pp65) presented on target cells (CMV) (UniProt P06725)

Substance: CD8+ T cells educated against pp65 peptide in the IVE assay (untreated) (cells without a defined receptor)
- lysis in the chromium release assay: > 50%
